From patent US20250179205A1 (Hoffmann-La Roche, published 2025) come the findings set out here.

Assay [1] addresses T1, human fibroblast activation protein (huFAP) (human, UniProt Q12884 1-760).
T1 construct: expressed on transfected NIH/3T3-huFAP clone 19 cells; also called human FAP
Briefly: flow cytometry, NIH/3T3-huFAP clone 19 cells, PE anti-human Fc F(ab')2. On the procedure: (§1) NIH/3T3-huFAP clone 19 and NIH/3T3-mFAP clone 26 were generated by the transfection of the mouse embryonic fibroblast NIH/3T3 cell line (ATCC CRL-1658) with the expression vector pETR4921 to express under 1.5 μg/mL Puromycin selection huFAP or mFAP, respectively.
(§2) NIH/3T3-huFAP, NIH/3T3-mFAP or NIH/3T3-wt cells were cultured with 1× Dulbecco's Modified Eagle's Medium (DMEM) (Gibco, Cat. No. 42430-025) supplemented with 10% Fetal Bovine Serum (FBS) (life technologies, Cat. No. 16140, Lot No. 1797306A). For the NIH/3T3-huFAP and NIH/3T3-mFAP cells 1.5 μg/mL Puromycin (Gibco, Cat. No. A11138-03) was added to the medium for selection of FAP-expressing cells. NIH/3T3 cells were removed from the plate by using enzyme-free Cell Dissociation Buffer (Gibco, Cat. No. 13151014). 0.3×10⁵ NIH/3T3-huFAP clone 19, NIH/3T3-mFAP clone 26 or NIH/3T3-wt were added in 200 μl of 1×DMEM 10% FBS to each well of a round-bottom 96-well plate (Greiner Bio-One, CELLSTAR®, Cat. No. 650185). Plates were centrifuged 5 minutes at 1700 rpm and supernatants were flicked off. Cells were washed once with 200 μL of 4° C. cold FACS buffer (eBioscience, Cat. No. 00-4222-26). All samples were resuspended in 50 μL/well of 4° C. cold FACS buffer containing the bispecific antigen binding molecules (primary antibody) or isotype control antibody DP47 at the indicated range of concentrations (in duplicates) and incubated for 120 minutes at 4° C. Afterwards the cells were washed three times with 200 μL 4° C. cold FACS buffer. Cells were further stained with 25 μL/well of 4° C. cold secondary antibody solution (1:50 dilution of secondary antibody) containing R-Phycoerythrin (PE) conjugated AffiniPure F(ab′)₂ Fragment Goat Anti-Human IgG, Fcγ Fragment Specific (Jackson ImmunoResearch, Cat. No. 109-116-098) and incubated for 60 minutes at 4° C. in the dark. Cells were washed with 200 μl FACS buffer and resuspended in 85 μL/well FACS-buffer containing 0.2 μg/mL DAPI (Roche, Cat. No. 10236276001) and acquired the same day using 5-laser LSR-Fortessa (BD Bioscience with DIVA software). Data analysis was performed using the FlowJo version 10 software (FlowJo LLC).

Assay [2] deals with T2, His-tagged human dimeric FAP (recombinant FAP_ECD) (human, UniProt Q12884 27-760).
T2 construct: also called hu FAP ectodomain + poly-lys-tag + his6-tag
In words: SPR (Biacore T200), His-tagged dimeric huFAP ECD captured by anti-His, antibody as analyte, 1:1 fit (avidity). Here is the method:
The capacity of the bispecific constructs to bind human FAP was assessed by surface plasmon resonance (SPR). All SPR experiments were performed on a BIACORE® T200 (BIACORE®) at 25° C. with HBS-EP as running buffer (0.01 M HEPES pH 7.4, 0.15 M NaCl, 3 mM EDTA, 0.005% Surfactant P20, (BIACORE®).
His-tagged human dimeric FAP (recombinant FAP_ECD) was captured on a CM5 chip (GE Healthcare) immobilized with anti-His antibody (Qiagen Cat. No. 34660) by injection of 500 nM huFAP for 60 s at a flow rate of 10 uL/min, 10 nM murine FAP for 20 s at a flow rate of 20 uL/min and 10 nM cynoFAP for 20 s at a flow rate of 20 uL/min. Immobilization levels for the anti-His antibody of up to 18000 resonance units (RU) were used. Following the capture step, the bispecific antibodies as well as control molecules were immediately passed over the chip surface at a concentration ranging from 0.78-100 nM with a flow rate of […] for 280 s and a dissociation phase of 180 s. Bulk refractive index differences were corrected for by subtracting the response obtained in a reference flow cell, where no FAP was immobilized. Avidity was determined using the Langmuir 1:1 curve fitting. For bivalent binding the same 1:1 fitting was used leading to an apparent KD value.
(In general: SPR reads the build-up and loss of mass on a sensor chip optically.)

Assay [3] addresses T2, His-tagged human dimeric FAP …. In words: method not stated; SPR as in Example 5.3.2 presumed.
Assay [4] has as its target T3, mouse fibroblast activation protein (mFAP) (mouse, UniProt P97321 1-761).
T3 construct: expressed on transfected NIH/3T3-mFAP clone 26 cells; also called murine FAP; mouse FAP
In words: flow cytometry on NIH/3T3-mFAP cells (3T3_mFAP), PE-labelled anti-human IgG Fcgamma F(ab')2 secondary, MFI baseline corrected. On the procedure: as §1, §2
Background: In flow cytometry, cells or beads pass a laser one at a time.

The target of assay [5] is T4, human CD40 (human, UniProt P25942 21-277).
T4 construct: on Daudi cells, Raji cells, human B cells or HEK-Blue CD40L cells; also called hu CD40; CD40 receptor
Briefly: flow cytometry, Raji cells, Alexa488 anti-huIgG. Here is the method:
CD40 positive cells (Raji cells) were detached from the culture bottle using Trypsin and were counted using a Casy cell counter. After pelleting at 4° C., the cells were resuspended in FACS Buffer (2.5% FCS in PBS), adjusted to 2.0E+06 cells/mL, and dispensed to 96-well PP V-bottom-plates (25 μL/well=5.0E+04Zellen/well).
The CD40 specific antibodies were adjusted to 20 μg/mL in FACS buffer, resulting in a final concentration of 10 μg/mL. […] were added to 25 μl cell suspension and incubated for 1 h at 4° C. The cells were then washed twice in FACS buffer. After washing, the cells were resuspended in 50 μL FACS-buffer containing secondary antibody (<huIgG>-Alexa488, c=10 μg/mL) and incubated 1 h at 4° C. The cells were then washed twice in FACS buffer and resuspended in 70 μl/well FACS buffer for measurement using a FACS Canto (BD, Pharmingen).

The target of assay [6] is T4, human CD40. Briefly: cell-based or functional assay.
Assay [7] addresses T4, human CD40. In words: flow cytometry, Daudi cells, PE anti-human Fc F(ab')2. Here is the method: The binding to cell surface CD40 was tested using Daudi cells, a human B lymphoblast cell line with high expression levels of human CD40 (ATCC CCL-213). Daudi cells were cultured with 1× Dulbecco's Modified Eagle's Medium (DMEM) (Gibco, Cat. No. 42430-025) supplemented with 10% Fetal Bovine Serum (FBS) (life technologies, Cat. No. 16140, Lot No. 1797306A). 0.3×10⁵ Daudi cells were added in 200 μl of 1×DMEM with 10% FBS to each well of a round-bottom 96-well plate (Greiner Bio-One, CELLSTAR®, Cat. No. 650185). Plates were centrifuged 5 minutes at 1700 rpm and supernatants were flicked off. Cells were washed once with 200 μL of 4° C. cold FACS buffer (eBioscience, Cat. No. 00-4222-26). All samples were resuspended in 50 μL/well of 4° C. cold FACS buffer containing the bispecific antigen binding molecules (primary antibody) or isotype control antibody DP47 at the indicated range of concentrations (in duplicates) and incubated for 120 minutes at 4° C. Afterwards the cells were washed three times with 200 μL 4° C. cold FACS buffer. Cells were further stained with 25 μL/well of 4° C. cold secondary antibody solution (1:50 dilution of secondary antibody) containing R-Phycoerythrin (PE) conjugated AffiniPure F(ab′)₂ Fragment Goat Anti-Human IgG, Fcγ Fragment Specific (Jackson ImmunoResearch, Cat. No. 109-116-098) and incubated for 60 minutes at 4° C. in the dark. Cells were washed with 200 μl FACS buffer and resuspended in 85 μL/well FACS-buffer containing 0.2 μg/mL DAPI (Roche, Cat. No. 10236276001) and acquired the same day using a 5-laser LSR-Fortessa (BD Bioscience with DIVA software). Data analysis was performed using the FlowJo version 10 software (FlowJo LLC).

Assay [8] addresses T5, Human CD40 extracellular domain with C-terminal His-AviTag (human).
T5 construct: analyte in solution in the SPR assays; also called recombinant human CD40_ECD
Briefly: SPR (Biacore), antibody captured by anti-human F(ab')2, CD40 ECD as analyte, 1:1 model. On the procedure:
Around 12000 resonance units (RU) of the capturing system (10 μg/ml goat anti human F(ab)′₂; Order Code: 28958325; GE Healthcare Bio-Sciences AB, Sweden) were coupled on a CM5 chip (GE Healthcare BR-1005-30) at pH 5.0 by using an amine coupling kit supplied by the GE Healthcare. The sample and system buffer was PBS-T (10 mM phosphate buffered saline including 0.05% Tween20) pH 7.4. The flow cell was set to 25° C.—and the sample block set to 12° C.—and primed with running buffer twice. The antibody was captured by injecting a 50 nM solution for 30 sec at a flow of 5 μl/min. Association was measured by injection of human CD40 extra cellular domain or cynomolgus monkey CD40 extracellular domain in various concentrations in solution for 300 sec at a flow of 30 μl/min starting with 300 nM in 1:3 dilutions. The dissociation phase was monitored for up to 1200 sec and triggered by switching from the sample solution to running buffer. The surface was regenerated by 60 sec washing with a Glycine pH 2.1 solution at a flow rate of 30 μl/min. Bulk refractive index differences were corrected by subtracting the response obtained from a goat anti human F(ab′)₂ surface. Blank injections are also subtracted (=double referencing). For calculation of apparent KD and other kinetic parameters the Langmuir 1:1 model was used. The apparent Kd was calculated using the BIACORE® B4000 evaluation software (version 1.1).

Assay [9] deals with T4, human CD40. In words: cell-based or functional assay. The source holds these as a separate data set.
For assay [10], the target named is T4, human CD40. Briefly: cell-based or functional assay. This is another data set of the same source.

T5 sequence (chain, as listed by the source limits assumed): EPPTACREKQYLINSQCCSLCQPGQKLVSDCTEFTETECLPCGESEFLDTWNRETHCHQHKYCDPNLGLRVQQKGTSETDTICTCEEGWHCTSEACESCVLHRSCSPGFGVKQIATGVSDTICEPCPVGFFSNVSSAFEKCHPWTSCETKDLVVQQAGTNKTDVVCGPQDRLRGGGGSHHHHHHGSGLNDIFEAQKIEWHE
T4 sequence (P25942 21-277 limits assumed): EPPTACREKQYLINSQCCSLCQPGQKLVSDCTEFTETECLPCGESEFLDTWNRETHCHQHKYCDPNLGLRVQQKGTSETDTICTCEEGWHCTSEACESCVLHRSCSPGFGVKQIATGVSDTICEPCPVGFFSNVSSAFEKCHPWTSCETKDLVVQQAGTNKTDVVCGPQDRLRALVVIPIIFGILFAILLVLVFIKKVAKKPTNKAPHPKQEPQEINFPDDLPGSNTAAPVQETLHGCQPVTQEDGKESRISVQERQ
T3 sequence (P97321 whole entry): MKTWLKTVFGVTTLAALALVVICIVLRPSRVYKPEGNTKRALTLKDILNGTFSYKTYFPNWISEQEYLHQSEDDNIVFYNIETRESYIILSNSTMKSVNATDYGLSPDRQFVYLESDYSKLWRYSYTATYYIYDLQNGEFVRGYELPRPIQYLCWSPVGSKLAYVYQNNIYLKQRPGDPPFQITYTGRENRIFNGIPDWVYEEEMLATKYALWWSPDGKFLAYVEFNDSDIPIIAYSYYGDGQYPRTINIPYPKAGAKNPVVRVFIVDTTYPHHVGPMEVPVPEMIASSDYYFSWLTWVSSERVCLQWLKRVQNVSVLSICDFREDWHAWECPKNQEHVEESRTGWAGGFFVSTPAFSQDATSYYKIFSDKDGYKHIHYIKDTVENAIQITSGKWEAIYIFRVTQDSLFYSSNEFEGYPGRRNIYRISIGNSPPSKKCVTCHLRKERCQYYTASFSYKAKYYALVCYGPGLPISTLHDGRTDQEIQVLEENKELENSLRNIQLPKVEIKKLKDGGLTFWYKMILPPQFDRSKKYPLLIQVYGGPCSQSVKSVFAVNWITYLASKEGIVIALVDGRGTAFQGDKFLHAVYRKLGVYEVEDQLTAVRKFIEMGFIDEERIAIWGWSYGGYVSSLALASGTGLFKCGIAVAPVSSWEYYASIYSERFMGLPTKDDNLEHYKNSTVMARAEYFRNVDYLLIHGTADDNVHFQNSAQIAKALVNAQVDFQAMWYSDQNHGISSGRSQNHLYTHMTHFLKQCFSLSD

B1: P1AE0408 CD40 × FAP (28H1) (2 + 1) head to tail (bispecific antibody, human IgG1, kappa, L234A L235A)
heavy 1: not shown
heavy 2: EVQLVESGGGLVQPGGSLRLSCAASGYSFTGYYIHWVRQAPGKGLEWVARVIPNAGGTSYNQKFKGRFTLSVDNSKNTAYLQMNSLRAEDTAVYYCAREGIYWWGQGTLVTVSSASTKGPSVFPLAPSSKSTSGGTAALGCLVEDYFPEPVTVSWNSGALTSGVHTFPAVLQSSGLYSLSSVVTVPSSSLGTQTYICNVNHKPSNTKVDEKVEPKSCDKTHTCPPCPAPEAAGGPSVFLFPPKPKDTLMISRTPEVTCVVVDVSHEDPEVKFNWYVDGVEVHNAKTKPREEQYNSTYRVVSVLTVLHQDWLNGKEYKCKVSNKALGAPIEKTISKAKGQPREPQVCTLPPSRDELTKNQVSLSCAVKGFYPSDIAVEWESNGQPENNYKTTPPVLDSDGSFFLVSKLTVDKSRWQQGNVFSCSVMHEALHNRFTQKSLSLSPGK
light 1: DIQMTQSPSSLSASVGDRVTITCRSSQSLVHSNGNTFLHWYQQKPGKAPKLLIYTVSNRFSGVPSRFSGSGSGTDFTLTISSLQPEDFATYFCSQTTHVPWTFGQGTKVEIKRTVAAPSVFIFPPSDRKLKSGTASVVCLLNNFYPREAKVQWKVDNALQSGNSQESVTEQDSKDSTYSLSSTLTLSKADYEKHKVYACEVTHQGLSSPVTKSFNRGEC
light 2: EVQLLESGGGLVQPGGSLRLSCAASGFTFSSHAMSWVRQAPGKGLEWVSAIWASGEQYYADSVKGRFTISRDNSKNTLYLQMNSLRAEDTAVYYCAKGWLGNFDYWGQGTLVTVSSASVAAPSVFIFPPSDEQLKSGTASVVCLLNNFYPREAKVQWKVDNALQSGNSQESVTEQDSKDSTYSLSSTLTLSKADYEKHKVYACEVTHQGLSSPVTKSFNRGEC
notes: a CD40 Fab fused to the N-terminus of the FAP crossFab on the knob chain; also called CD40 × FAP 2 + 1 head-to-tail; 2 + 1 head-to-tail format
As usually defined, the EC50 is the concentration that produces a half-maximal response. Higher therefore signals lower potency in that assay. As a reminder, the koff is a measure of how fast the partners let go of each other. As usually defined, the kon is the rate constant with which the complex forms. For orientation: EC50 (read off the curve) means the concentration at which the effect is half-maximal. B1 displayed an EC50 in assay [1] of 7.99 nM. In [2], the Kd was 6 nM, the koff came to 0.00174 s⁻¹ and the kon came to 291000 M⁻¹ s⁻¹. The Kd in assay [3] came to 1.5 nM. The “EC50 (read off the curve)” value in assay [4] was approximately 8 nM.

B2: P1AD4470 CD40 IgG (antibody, V domains shown)
VH: EVQLVESGGGLVQPGGSLRLSCAASGYSFTGYYIHWVRQAPGKGLEWVARVIPNAGGTSYNQKFKGRFTLSVDNSKNTAYLQMNSLRAEDTAVYYCAREGIYWWGQGTLVTVSS
VL: DIQMTQSPSSLSASVGDRVTITCRSSQSLVHSNGNTFLHWYQQKPGKAPKLLIYTVSNRFSGVPSRFSGSGSGTDFTLTISSLQPEDFATYFCSQTTHVPWTFGQGTKVEIKR
notes: bivalent anti-human CD40 IgG1; cross-linked with anti-human Fc F(ab')2 in the functional assays; also called CD40 IgG1 PGLALA; CD40 IgG1
In assay [5], B2 came in with an EC50 of 0.09 µg/mL. In addition, in [6], the “EC50, activation of human B cells with FAP-coated Dynabeads, increase of CD86 expression” value was 0.072 nM. The EC50 in [7] worked out at 0.104 nM. Besides, in assay [8], the Kd is 4.6 nM, the koff was found to be 0.00781 s⁻¹ and the kon was 1.69e+06 M⁻¹ s⁻¹. In addition, the “EC50, activation of HEK-Blue CD40L cells (SEAP) with murine FAP-coated Dynabeads” value in [9] turned out to be 0.125 nM. In addition, the binding result in assay [4] is on record as “no binding (tested: 500 nM)”. The “EC50, activation of human Daudi cells (CD70 expression) with FAP-coated Dynabeads” value in assay [10] is 0.756 nM.

B3: P1AE0816 CD40 IgG1_LALAPG antibody (control) (antibody, V domains shown)
VH: QVQLVQSGAEVKKPGASVKVSCKASGYSFTGYYIHWVRQAPGQSLEWMGRVIPNNGGTSYNQKFQGRVTISVDKSISTAYMELSSLRSEDTAVYYCAREGIYWWGHGTTVTVSS
VL: DVVVTQSPLSLPVTPGEPASISCRSSQSLVHSNGNTFLHWYLQKPGQSPQLLIYTVSNRFSGVPDRFSGSGSGTDFTLKISRVEAEDVGVYFCSQTTHVPWTFGGGTKLEIKR
notes: huIgG1 LALA PG; control for acceptor framework 1
In turn, B3 came in with an EC50 in assay [5] of 0.09 µg/mL. Moreover, in assay [8], the Kd was determined as 8.7 nM, the off-rate constant (koff) stood at 0.0219 s⁻¹ and the kon is 2.53e+06 M⁻¹ s⁻¹.
